A word on the IC50: it is the concentration needed to halve the response being measured. Usually bioavailability stands for the share of a dose that reaches the circulation, judged against a reference dose that is usually intravenous.

Like-named read-outs stand apart in the source and are kept apart here.

The target in one series is LHRH-receptor. Kind of series: Receptor binding assays (kinetic, saturation, competition) with 125I-deslorelin in bovine pituitary and nasal tissue homogenates. To be noted: for IC50: read-out: Low affinity - IC50 II. Here is the method:
Radioactivity was measured in the pellet using a Perkin-Elmer γ-counter.
Reprod. […] Reprod. […] Radioactivity was measured in the pellet using a Perkin-Elmer γ-counter. […] The experiment was repeated three times.
Competition Studies: To determine the amount of unlabelled deslorelin required to displace the radioactivity, competition studies were conducted. […] Assays were performed in triplicates. At the end of 4 hr, the incubation tubes were centrifuged at 10,000 g for 20 min at 4° C. to separate the bound fraction. Radioactivity was measured in the pellet using a Perkin-Elmer γ-counter. The same controls as in the kinetic and saturation studies were used. The experiment was repeated three times.

For series [1] the following is noted: in vivo, cited from earlier work.
Series [2] can be described thus: 3H-mannitol transport across excised bovine cornea (corneal barrier integrity). It is filed as in vitro ADME. Conditions: read-out: apparent permeability coefficient of mannitol. Here is the method: The corneal barrier integrity in the ex vivo bovine model of Example 5 was also studied by analysis of ^3H-mannitol transport, with or without nanoparticle exposure. ^3H-mannitol was obtained from American Radiolabeled Chemicals, Inc. (St. Louis, Mo.). ^3H-mannitol transport across excised bovine cornea was performed without any treatment or after dosing the bovine ex vivo eye model with a 50 μl drop of assay buffer or 50 μl of 1 mg/ml nanoparticle suspension followed by incubation up to 60 min with buffer treatments as described above. Temperature was maintained at 37° C.
At 0, 5 and 60 minutes after assay buffer drop instillation and 60 min after nanoparticles drop instillation, the eyes were washed thrice with assay buffer (1 ml each time) and the corneas were isolated from the eyeball. The tissues were then mounted in modified Ussing chambers (Navicyte, Reno, N.Y.) for mannitol transport study. The aperture area of the chambers is 0.64 cm^2. The corneal area exposed was expected to be slightly greater than the chamber aperture area due to corneal curvature. ^3H-mannitol (1.5 ml; 1 μCi/ml) was placed in the donor chamber (epithelial to endothelial transport) and plain assay buffer (1.5 ml) was placed in the receiver chamber. At various time points up to 4 hours, 200 μl samples were removed from the receiver chamber and replaced with an equal volume of fresh assay buffer. To each sample, 4 ml of scintillation fluid (Fisher Scientific, NJ) was added and the radioactivity was quantified using a liquid scintillation counter. […] Data are expressed as mean±standard deviation for n=4.

Series [3] has as its system excised bovine conjunctiva. Put plainly: Nanoparticle transport and uptake, excised bovine conjunctiva in modified Ussing chambers. The class given is in vitro ADME. Here is the method: (§1) Nanoparticle uptake and transport studies were performed using excised bovine cornea and conjunctiva mounted in vertical diffusion chambers. Modified Ussing chambers (Navicyte, Reno, N.Y.) were used to mount bovine corneas and conjunctivas for transport studies. The tissues were exposed to 1.5 ml of assay buffer with either conjugated or unconjugated nanoparticles (100 μg/ml) on the mucosal/tear side (donor side). The area of exposure is 0.64 cm^2 for conjunctiva and slightly greater for cornea due to curvature. The receiver side was exposed to 1.5 ml of assay buffer without nanoparticles. The buffers were pre-equilibrated to 37° C. or 4° C. as required and the chambers were maintained at the desired temperature. […] The experiment was terminated at 4 hours and the samples were stored in polypropylene tubes at 4° C. until analysis.
(§2) At the end of 4 hour transport studies, the tissue area exposed to particle suspension (aperture area: 0.64 cm^2) were cut and washed thrice with assay buffer followed by the acid buffer (pH 5.0). The tissues were then homogenized in 2% Triton-X using Tissue Tearor™. The tissue debris was separated by centrifugation at 3000 rpm (Marathon Micro AR) for 10 minutes. The supernatant was collected to analyze the amount of nanoparticles taken up by the tissue. The supernatant was analyzed by spectrofluorometry at excitation and emission wavelengths of 505 and 515 nm, respectively.

The test system of series [4] is bovine corneal epithelium, stroma, endothelium and aqueous humor. Put plainly: Eye drop nanoparticle uptake in excised (ex vivo) bovine eye model. It is filed as in vitro ADME. Here is the method:
The precorneal residence of eye drops is very short and effective delivery to the cornea requires rapid binding and entry of drugs or carriers in vivo. The in vivo situation was simulated using an intact bovine eye for an ex vivo model. […] Then, the particle uptake at 5 and 60 min was measured following thorough washing of the eye surface to remove any loosely adherent particles. The uptake was expected to be the highest for the solutes or carriers tightly bound to the corneal surface or for those that are rapidly taken up by the corneal epithelium. To maintain the surface moisture and to simulate tear flow in part, buffer drops (50 μl) were administered every 15 min, and the water bath was sealed.
Freshly excised bovine eyes were obtained from a local slaughterhouse (Nebraska Beef, Omaha, Nebr.). The experiments were initiated within 2-3 hours after sacrifice. For the experiment, bovine eyes were placed in Teflon coated wells containing assay buffer to immerse the posterior segment, while exposing the cornea towards the surface. The Teflon coated well plate was placed in a shaking water bath maintained at 37° C. and the water bath was sealed with Saran Wrap™ (S.C. Johnson & Son, Inc., Racine, Wis.). Alternatively, the setup was placed in a cold room maintained at 4° C. Prior to dosing, the eyes were equilibrated for about 30 min with assay buffer at 37° C. or 4° C. as required. The measured temperatures of the vitreous humor and aqueous humor in the 37° C. study were ˜37° C. and ˜35° C., respectively. The measured temperature was ˜5° C. for both vitreous humor as well as aqueous humor in the 4° C. study. In the ex vivo studies, either 5 or 60 min time points were chosen since eye drops are rapidly cleared from the tissue surface and because high solute uptake is desired in a short time with eye drops.
Ex vivo model studies involved administration of a 50 μl dosing solution/suspension drop to the cornea followed by 50 μl drops of assay buffer on the cornea every 15 minutes to maintain corneal moisture. At the end of 0, 5, or 60 minutes study, the corneal surface was washed thrice with assay buffer (1 ml each time) followed by three washes with acid buffer (1 ml each time; assay buffer adjusted to pH 5.0 with HCl) to remove any loosely adherent nanoparticles prior to tissue analysis. The same protocol was followed even when plain buffer drops were assessed. To initiate the uptake experiment, a 50 μl eye drop of 10 mg/ml (in studies assessing the influence of epithelium in particle uptake) or 1 mg/ml nanoparticle suspension (unconjugated nanoparticles with carboxylate functionalities, deslorelin-CA and transferrin-CA) was topically administered to isolated bovine eyeballs. Buffer and wash treatments were performed as described above. At 5 and 60 minutes after drop instillation, the incubation was terminated and the corneal epithelium, stroma, endothelium and aqueous humor (0.5 ml) were isolated from the eyeball. The tissues were homogenized in 2% Triton-X. The supernatant obtained after centrifuging tissue homogenate at 5000 rpm (Marathon Micro AR, Fisher Scientific) for 10 minutes was analyzed by spectrofluorometry at excitation and emission wavelengths of 505 and 515 nm, respectively.

The next series has as its system excised bovine cornea. Kind of series: Nanoparticle transport and uptake, excised bovine cornea in modified Ussing chambers. The class given is in vitro ADME. Here is the method:
as §1, §2

A short description of series [5]: Particle size, polydispersity and zeta-potential by dynamic light scattering. The class given is physicochemical. To be noted: Table 2, polystyrene nanoparticles. Here is the method: Nanoparticle carrier particles were formed by the methods of the preceding Example, and characterized as follows. The particle size and the zeta-potential were measured using Zeta Plus zeta-potential analyzer (Brookhaven Instruments Ltd., New York, N.Y.), which employs the dynamic light scattering technique for particle size measurement. The particle size and zeta-potential measurements were made after 1:1000 dilution of particle stock in filtered deionized water. Further, the particles were visualized using a transmission electron microscope (TEM). The carbon-coated grids were floated on a suspension droplet of plain or functionalized nanoparticles on a flexible plastic film (Parafilm, Pechiney Plastic Packaging, Neenah, Wis.) to allow the adsorption of nanoparticles onto the grid. After drying the particles, uranyl acetate was added as a negative stain to the carbon grid and allowed to react with the particles. This procedure makes the particles electron dense, allowing their visualization using an electron microscope. The particles were photographed using EM410 Phillips electron microscope (Eindhoven, The Netherlands) set at 60 kV and a magnification of 153000×.
Characterization of particles: The particle size and the zeta-potential were measured using ZetaPlus® zeta-potential analyzer, Brookhaven Instruments Ltd. (New York, N.Y.), which employs the dynamic light scattering technique for particle size measurement. The particle size and zeta-potential measurements were carried out after 1:1000 dilution of particle stock in filtered deionized water before lyophilization in filtered deionized water. The effective diameter of conjugated nanoparticles was higher than that of unconjugated nanoparticles.
Particle Size Analysis: Particle size and zeta-potential of the nanoparticles before and after conjugation following lyophilization were measured in double distilled water (100 μl of particle/1 ml of water) using dynamic light scattering (DLS). After lyophilization the plasmid loaded particles were weighed (1 mg) into glass Kimble tubes. To each tube, 1 ml of double distilled water was added and vortexed at high speed (Vortex Genie, Scientific Industries, Bohemia, N.Y.) till the particles were resuspended. The particle size and zeta potential was determined using dynamic light scattering after dilution (1:10 in double distilled water) (Brookhaven Instruments Corp., Holtsville, N.Y.). Nanoparticle size after lyophilization was 210.4±0.68 nm and zeta potential was −32.85±0.87 mV. Nanoparticle size and zeta potential was measured after conjugation with deslorelin and transferrin. Similarly, the unconjugated nanoparticles were also treated under the same conditions as with the conjugated nanoparticles (the conjugation protocol as mentioned above).
Transport studies were conducted in bovine nasal tissue. Bovine nasal tissue was obtained from freshly slaughtered cattle, and different regions (MTA, MTP, ITP) were prepared as described in Example 13. Nanoparticles coupled to deslorelin or transferring via aldehyde sulfate moieties were prepared as described in Example 3. The nanoparticle size was measured using a Zeta Plus Analyzer (Brookhaven Instruments Limited, UK). Particle size was analyzed before and after ligand conjugation in deionized filtered water.

The mark [6] stands for this setting: versus unconjugated nanoparticles, 37° C.
Setting [7] is: Corneal Epithelium, 50 μl of 1 mg/ml.
Setting [8] is: Corneal Stroma, 50 μl of 1 mg/ml.

In the case of `CCNC(=O)[C@@H]1CCCN1C(=O)[C@H](CCCN=C(N)N)NC(=O)[C@H](CC(C)C)NC(=O)[C@@H](Cc1c[nH]c2ccccc12)NC(=O)[C@H](Cc1ccc(O)cc1)NC(=O)[C@H](CO)NC(=O)[C@H](Cc1c[nH]c2ccccc12)NC(=O)[C@H](Cc1cnc[nH]1)NC(=O)[C@@H]1CCC(=O)N1` [deslorelin], the 50% inhibitory concentration (IC50) at LHRH-receptor (ITP) was found to be 32.9 ± 1.25 nM; on LHRH-receptor (MTA) it was 53.2 ± 4 nM; at LHRH-receptor (MTP) it was 42.1 ± 1.83 nM; at LHRH-receptor (Pituitary, competition with 125I-deslorelin) it was 17.9 ± 0.449 nM. Also, the “high affinity binding sites as share of all the binding sites available” value in the series with LHRH-receptor (competition studies, nasal tissue regions) is listed as 60-70%.

`CCNC(=O)[C@@H]1CCCN1C(=O)[C@H](CCCNC(=N)N)NC(=O)[C@H](CC(C)C)NC(=O)[C@@H](CC(C)C)NC(=O)[C@H](Cc1ccc(O)cc1)NC(=O)[C@H](CO)NC(=O)[C@H](Cc1c[nH]c2ccccc12)NC(=O)[C@H](Cc1c[nH]cn1)NC(=O)[C@@H]1CCC(=O)N1` [leuprolide]: the bioavailability is 2.9% in series [1] (inhaled or intranasal) and 28% in series [1].

With `OC[C@@H](O)[C@@H](O)[C@H](O)[C@H](O)CO` [mannitol], the Papp at 4 h, 1 μCi/ml in series [2] (corneas isolated at 5 min following 50 μl assay buffer drop) was found to be 0.5 ± 0.1 ×10⁻⁶ cm/s; in series [2] (corneas isolated at 60 min following 50 μl assay buffer drop), 0.47 ± 0.04 ×10⁻⁶ cm/s; in series [2] (freshly isolated corneas) it was 0.4 ± 0.1 ×10⁻⁶ cm/s.

“Transferrin-CA: transferrin-carboxylate-conjugated polystyrene nanoparticles”: the “uptake in bovine conjunctiva at the end of 4 hours” value in series [3] (37° C.) came out at 2.83±0.03%. The “cumulative transport in 4 hours across conjunctiva” value in series [3] (37° C., 100 μg/ml donor) amounted to 3.5±0.1%. In addition, in series [3] (versus 37° C.), the “reduction in conjunctival uptake at 4° C.” value is on record as 52% and the “reduction in the cumulative transport in conjunctiva at 4° C.” value amounted to 89%. Besides, in series [3] (setting [6]), the “increase of percent transport across conjunctiva by conjugation” value came to 51%. Also, in series [4] (Control (4° C.)), the “Corneal epithelial uptake (60 min)” value stood at 307.1 ± 124 ng/mg tissue/mg dose. Moreover, the “Corneal epithelial uptake (60 min)” value in series [4] (Control (37° C.)) is listed as 1146.3 ± 306.6 ng/mg tissue/mg dose. For the same molecule, in series [4] (setting [7]), the “Concentration at 5 min” value is listed as 791 ± 239 ng/mg tissue/mg dose, the “Concentration at 60 min” value amounted to 1146 ± 307 ng/mg tissue/mg dose, the “NP uptake at 5 min (%)” value was 4.96% and the “NP uptake at 60 min (%)” value turned out to be 7.19%. For the same molecule, in series [4] (setting [8]), the “NP uptake at 5 min (%)” value turned out to be 10.98% and the “NP uptake at 60 min (%)” value was 3.31%. Besides, in series [4] (With free ligand (37° C.), free deslorelin or transferrin 1 mg/ml), the “Corneal epithelial uptake (60 min)” value amounted to 467.1 ± 131.9 ng/mg tissue/mg dose. Moreover, the “total corneal uptake in 5 min” value in series [4] (summary of Examples 5-8) is roughly 16%. In addition, in the series on excised bovine cornea (37° C.), the “uptake by isolated bovine cornea at the end of 4 hours” value amounted to 2.36±0.03%. The “cumulative transport in 4 hours across isolated bovine cornea” value in the series with excised bovine cornea (37° C., 100 μg/ml donor) was 2.76±0.03%. Moreover, the “reduction in corneal uptake at 4° C.” value in the series on excised bovine cornea (versus 37° C.) is 47%. The “increase of percent transport across bovine cornea by conjugation” value with excised bovine cornea (setting [6]) came to 74%. For the same molecule, in series [5], the Zeta potential was −29.24 ± 4.33 mV. The “Measured Diameter” value in series [5] (1:1000 dilution in filtered deionized water, includes hydrodynamic layer, n = 3) is reported as 84.7 ± 0.8 nm.

(Values after patent US8821943B2, “Methods and compositions for targeted delivery of therapeutic agents” (Board of Regents of the University of Nebraska, priority 2006, dated 2014).)
